Substrate: OB(O)O
Assay: two-electrode voltage clamp, boric acid-elicited currents in Xenopus oocytes
Type: cell-based, Takifugu obscurus
Conditions: total boric acid (B(OH)3 + B(OH)4-), Vh +60 mV, pH 7.5, 18 °C, Na+-independent electrogenic transport

B1: Slc4a11A (mfSlc4a11A) (Takifugu obscurus) (protein)
chain: MDMLSQEMELKDEKKEDYGEDSDAIHIYDTEAYISVSDPDRPGFGLLNTTRKYVKPMNFQEEVRAHRDLDNFLAQASILLDERATTLDEVLRRMLAHLLEEGRESCDPDEVMSSVFTDAGGKDFDVHLLSETIQGVTSTSTGIHYQQSWLCILTNLRSLQRRHVCIARLDRPQNWGVNCCEARYVIFILAPPRTKSTKTAIELGRTFATMFSDISFRQRLLETKTQEEFKQELLSYRQKLSTVQEKPVEEEEEDSDPRRGKALQCKDFLKAGKGVYRDLRRRLPLYPSDFTDGLTGKDRCLLKYTTTAIFLYIAILLPAIAFGSLNDESTRGEIDVQKTIVGQSIGGVIYALFAGSPLVIPLTTAPLAIFISVIRGICDDYDLDFDSFYACIGLWNSLFLILGGLFNVSLLMKLFKRSTEEVIALFISIAFVGDAVKGTVKIFQHFYRGPTLTTTNSTLVFQQLEGILNQTNNQTGNGLGEHGQADGHTLVFLPQSLVECTREMPILCLLLMLGTLWLGYTLYLIRRSPYLNDKIREVVSDCALPISVVICSFIGSYLFLNIKLPVFSVHDGPIFNYPPFDKLSGMSALSAVGLGFLLALLIFIDQNIVISLTHVPEHKLLKGTAFHWDLMLTGFINILMSCLGLPWMHAAFPHSSLHARQLAKVEQHVENGHLYTTIVSVKETRLTALAANILIGLSAFMLPIPLQWIPKPVLYGLFLYIAATSLDGNQMVDRMCLLLKEQTSYPPTHYVRRVPQRKVHFFTGVQMIQLIILCAFGMYPLPYMKMVFPLLMILLVPIRTSLLPKMIDAKYLDIMDAQHM
notes: full-length cDNA in pGEMHE, untagged, expressed in Xenopus laevis oocytes; 820 residues; C-terminal region antigen peptide PKMIDAKYLDIMDAQHM
B1 gave a Km of 6.5 ± 0.6 mM.
